{
  "source": "patent US20140087995A1",
  "about": "(published 2014)",
  "note": "Numbered stars: 1 amine (or outer) side, 2 acyl side, 3 side chain; on linkers, the order of the positions; unused ones are H or OH. Bridge positions count the residues as written; N and C are the ends. Side chains are listed from the residue outwards. Ends that are not written are not given here. * marks the point of attachment. C20 diacid = O=C(O)CCCCCCCCCCCCCCCCCCC(=O)*; γGlu = O=C(O)[C@H](CCC(=O)[*:2])N[*:1]",
  "data": [
    {"biological_target": "T1, human calcitonin receptor (human, UniProt P30988 25-474)", "T1 sequence (looked up)": "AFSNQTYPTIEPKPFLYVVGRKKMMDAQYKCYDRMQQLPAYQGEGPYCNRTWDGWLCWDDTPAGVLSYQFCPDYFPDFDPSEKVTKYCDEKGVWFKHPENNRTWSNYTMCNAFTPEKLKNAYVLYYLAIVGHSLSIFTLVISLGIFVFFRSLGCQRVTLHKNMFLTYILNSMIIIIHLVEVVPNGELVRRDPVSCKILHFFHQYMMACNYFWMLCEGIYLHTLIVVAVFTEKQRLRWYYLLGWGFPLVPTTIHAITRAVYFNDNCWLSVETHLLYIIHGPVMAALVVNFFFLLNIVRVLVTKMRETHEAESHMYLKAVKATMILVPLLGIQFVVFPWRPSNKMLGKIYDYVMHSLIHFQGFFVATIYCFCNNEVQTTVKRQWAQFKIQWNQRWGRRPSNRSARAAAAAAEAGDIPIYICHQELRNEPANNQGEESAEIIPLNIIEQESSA", "experiment": "cell-based or functional assay", "units": {"hCTR funct. EC50 (pM)": "pM"}, "values": [
      {"binder": "K([γGlu-γGlu-C20 diacid])CNTATCATQRLAEFLRHSSPNFGAIPSSTNVGRETY-NH2 (disulfide 2-7; N-terminus assumed; SMILES CC[C@H](C)[C@H](NC(=O)[C@H](C)NC(=O)CNC(=O)[C@H](Cc1ccccc1)NC(=O)[C@H](CC(N)=O)NC(=O)[C@@H]1CCCN1C(=O)[C@H](CO)NC(=O)[C@H](CO)NC(=O)[C@H](Cc1c[nH]cn1)NC(=O)[C@H](CCCNC(=N)N)NC(=O)[C@H](CC(C)C)NC(=O)[C@H](Cc1ccccc1)NC(=O)[C@H](CCC(=O)O)NC(=O)[C@H](C)NC(=O)[C@H](CC(C)C)NC(=O)[C@H](CCCNC(=N)N)NC(=O)[C@H](CCC(N)=O)NC(=O)[C@@H](NC(=O)[C@H](C)NC(=O)[C@@H]1CSSC[C@H](NC(=O)[C@@H](N)CCCCNC(=O)CC[C@H](NC(=O)CC[C@H](NC(=O)CCCCCCCCCCCCCCCCCCC(=O)O)C(=O)O)C(=O)O)C(=O)N[C@@H](CC(N)=O)C(=O)N[C@@H]([C@@H](C)O)C(=O)N[C@@H](C)C(=O)N[C@@H]([C@@H](C)O)C(=O)N1)[C@@H](C)O)C(=O)N1CCC[C@H]1C(=O)N[C@@H](CO)C(=O)N[C@@H](CO)C(=O)N[C@H](C(=O)N[C@@H](CC(N)=O)C(=O)N[C@H](C(=O)NCC(=O)N[C@@H](CCCNC(=N)N)C(=O)N[C@@H](CCC(=O)O)C(=O)N[C@H](C(=O)N[C@@H](Cc1ccc(O)cc1)C(N)=O)[C@@H](C)O)C(C)C)[C@@H](C)O, synthetic peptide amide)", "hCTR funct. EC50 (pM)": 7430},
      {"binder": "K([γGlu-γGlu-C20 diacid])CNTATCATQRLAEFLRHSSPNFGAIPSSTNVGPRTY-NH2 (disulfide 2-7; N-terminus assumed; SMILES CC[C@H](C)[C@H](NC(=O)[C@H](C)NC(=O)CNC(=O)[C@H](Cc1ccccc1)NC(=O)[C@H](CC(N)=O)NC(=O)[C@@H]1CCCN1C(=O)[C@H](CO)NC(=O)[C@H](CO)NC(=O)[C@H](Cc1c[nH]cn1)NC(=O)[C@H](CCCNC(=N)N)NC(=O)[C@H](CC(C)C)NC(=O)[C@H](Cc1ccccc1)NC(=O)[C@H](CCC(=O)O)NC(=O)[C@H](C)NC(=O)[C@H](CC(C)C)NC(=O)[C@H](CCCNC(=N)N)NC(=O)[C@H](CCC(N)=O)NC(=O)[C@@H](NC(=O)[C@H](C)NC(=O)[C@@H]1CSSC[C@H](NC(=O)[C@@H](N)CCCCNC(=O)CC[C@H](NC(=O)CC[C@H](NC(=O)CCCCCCCCCCCCCCCCCCC(=O)O)C(=O)O)C(=O)O)C(=O)N[C@@H](CC(N)=O)C(=O)N[C@@H]([C@@H](C)O)C(=O)N[C@@H](C)C(=O)N[C@@H]([C@@H](C)O)C(=O)N1)[C@@H](C)O)C(=O)N1CCC[C@H]1C(=O)N[C@@H](CO)C(=O)N[C@@H](CO)C(=O)N[C@H](C(=O)N[C@@H](CC(N)=O)C(=O)N[C@H](C(=O)NCC(=O)N1CCC[C@H]1C(=O)N[C@@H](CCCNC(=N)N)C(=O)N[C@H](C(=O)N[C@@H](Cc1ccc(O)cc1)C(N)=O)[C@@H](C)O)C(C)C)[C@@H](C)O, synthetic peptide amide; also called compound 110)", "hCTR funct. EC50 (pM)": 8160},
      {"binder": "K([γGlu-γGlu-C20 diacid])CNTATCATQRLAEFLRHSSPNFGAIPSSTNVGPHTY-NH2 (disulfide 2-7 (inferred), synthetic peptide amide)", "hCTR funct. EC50 (pM)": 2830},
      {"binder": "K([γGlu-γGlu-C20 diacid])CNTATCATQRLAEFLRHSSPNFGAILSSTPVGPETY-NH2 (disulfide 2-7, synthetic peptide amide)", "hCTR funct. EC50 (pM)": 1280},
      {"binder": "K([γGlu-γGlu-C20 diacid])CNTATCATQRLAEFLRHSSPNFGAIPSSTNVGPNTF-NH2 (disulfide 2-7; N-terminus assumed; SMILES CC[C@H](C)[C@H](NC(=O)[C@H](C)NC(=O)CNC(=O)[C@H](Cc1ccccc1)NC(=O)[C@H](CC(N)=O)NC(=O)[C@@H]1CCCN1C(=O)[C@H](CO)NC(=O)[C@H](CO)NC(=O)[C@H](Cc1c[nH]cn1)NC(=O)[C@H](CCCNC(=N)N)NC(=O)[C@H](CC(C)C)NC(=O)[C@H](Cc1ccccc1)NC(=O)[C@H](CCC(=O)O)NC(=O)[C@H](C)NC(=O)[C@H](CC(C)C)NC(=O)[C@H](CCCNC(=N)N)NC(=O)[C@H](CCC(N)=O)NC(=O)[C@@H](NC(=O)[C@H](C)NC(=O)[C@@H]1CSSC[C@H](NC(=O)[C@@H](N)CCCCNC(=O)CC[C@H](NC(=O)CC[C@H](NC(=O)CCCCCCCCCCCCCCCCCCC(=O)O)C(=O)O)C(=O)O)C(=O)N[C@@H](CC(N)=O)C(=O)N[C@@H]([C@@H](C)O)C(=O)N[C@@H](C)C(=O)N[C@@H]([C@@H](C)O)C(=O)N1)[C@@H](C)O)C(=O)N1CCC[C@H]1C(=O)N[C@@H](CO)C(=O)N[C@@H](CO)C(=O)N[C@H](C(=O)N[C@@H](CC(N)=O)C(=O)N[C@H](C(=O)NCC(=O)N1CCC[C@H]1C(=O)N[C@@H](CC(N)=O)C(=O)N[C@H](C(=O)N[C@@H](Cc1ccccc1)C(N)=O)[C@@H](C)O)C(C)C)[C@@H](C)O, synthetic peptide amide)", "hCTR funct. EC50 (pM)": 2140},
      {"binder": "K([γGlu-γGlu-C20 diacid])CNTATCATQRLAEFLRHSSNNPGAILSSTNVGPETY-NH2 (disulfide 2-7; N-terminus assumed; SMILES CC[C@H](C)[C@H](NC(=O)[C@H](C)NC(=O)CNC(=O)[C@@H]1CCCN1C(=O)[C@H](CC(N)=O)NC(=O)[C@H](CC(N)=O)NC(=O)[C@H](CO)NC(=O)[C@H](CO)NC(=O)[C@H](Cc1c[nH]cn1)NC(=O)[C@H](CCCNC(=N)N)NC(=O)[C@H](CC(C)C)NC(=O)[C@H](Cc1ccccc1)NC(=O)[C@H](CCC(=O)O)NC(=O)[C@H](C)NC(=O)[C@H](CC(C)C)NC(=O)[C@H](CCCNC(=N)N)NC(=O)[C@H](CCC(N)=O)NC(=O)[C@@H](NC(=O)[C@H](C)NC(=O)[C@@H]1CSSC[C@H](NC(=O)[C@@H](N)CCCCNC(=O)CC[C@H](NC(=O)CC[C@H](NC(=O)CCCCCCCCCCCCCCCCCCC(=O)O)C(=O)O)C(=O)O)C(=O)N[C@@H](CC(N)=O)C(=O)N[C@@H]([C@@H](C)O)C(=O)N[C@@H](C)C(=O)N[C@@H]([C@@H](C)O)C(=O)N1)[C@@H](C)O)C(=O)N[C@@H](CC(C)C)C(=O)N[C@@H](CO)C(=O)N[C@@H](CO)C(=O)N[C@H](C(=O)N[C@@H](CC(N)=O)C(=O)N[C@H](C(=O)NCC(=O)N1CCC[C@H]1C(=O)N[C@@H](CCC(=O)O)C(=O)N[C@H](C(=O)N[C@@H](Cc1ccc(O)cc1)C(N)=O)[C@@H](C)O)C(C)C)[C@@H](C)O, synthetic peptide amide)", "hCTR funct. EC50 (pM)": 89600},
      {"binder": "K([γGlu-γGlu-C20 diacid])CNTATCATQRLASFLRHSSPNFGAIPSSTNVGPETY-NH2 (disulfide 2-7; N-terminus assumed; SMILES CC[C@H](C)[C@H](NC(=O)[C@H](C)NC(=O)CNC(=O)[C@H](Cc1ccccc1)NC(=O)[C@H](CC(N)=O)NC(=O)[C@@H]1CCCN1C(=O)[C@H](CO)NC(=O)[C@H](CO)NC(=O)[C@H](Cc1c[nH]cn1)NC(=O)[C@H](CCCNC(=N)N)NC(=O)[C@H](CC(C)C)NC(=O)[C@H](Cc1ccccc1)NC(=O)[C@H](CO)NC(=O)[C@H](C)NC(=O)[C@H](CC(C)C)NC(=O)[C@H](CCCNC(=N)N)NC(=O)[C@H](CCC(N)=O)NC(=O)[C@@H](NC(=O)[C@H](C)NC(=O)[C@@H]1CSSC[C@H](NC(=O)[C@@H](N)CCCCNC(=O)CC[C@H](NC(=O)CC[C@H](NC(=O)CCCCCCCCCCCCCCCCCCC(=O)O)C(=O)O)C(=O)O)C(=O)N[C@@H](CC(N)=O)C(=O)N[C@@H]([C@@H](C)O)C(=O)N[C@@H](C)C(=O)N[C@@H]([C@@H](C)O)C(=O)N1)[C@@H](C)O)C(=O)N1CCC[C@H]1C(=O)N[C@@H](CO)C(=O)N[C@@H](CO)C(=O)N[C@H](C(=O)N[C@@H](CC(N)=O)C(=O)N[C@H](C(=O)NCC(=O)N1CCC[C@H]1C(=O)N[C@@H](CCC(=O)O)C(=O)N[C@H](C(=O)N[C@@H](Cc1ccc(O)cc1)C(N)=O)[C@@H](C)O)C(C)C)[C@@H](C)O, synthetic peptide amide; also called compound 120)", "hCTR funct. EC50 (pM)": 887},
      {"binder": "K([γGlu-γGlu-C20 diacid])CNTATCATQRLAEFLRHSSPNFGAIPSSTNVGHETY-NH2 (disulfide 2-7; N-terminus assumed; SMILES CC[C@H](C)[C@H](NC(=O)[C@H](C)NC(=O)CNC(=O)[C@H](Cc1ccccc1)NC(=O)[C@H](CC(N)=O)NC(=O)[C@@H]1CCCN1C(=O)[C@H](CO)NC(=O)[C@H](CO)NC(=O)[C@H](Cc1c[nH]cn1)NC(=O)[C@H](CCCNC(=N)N)NC(=O)[C@H](CC(C)C)NC(=O)[C@H](Cc1ccccc1)NC(=O)[C@H](CCC(=O)O)NC(=O)[C@H](C)NC(=O)[C@H](CC(C)C)NC(=O)[C@H](CCCNC(=N)N)NC(=O)[C@H](CCC(N)=O)NC(=O)[C@@H](NC(=O)[C@H](C)NC(=O)[C@@H]1CSSC[C@H](NC(=O)[C@@H](N)CCCCNC(=O)CC[C@H](NC(=O)CC[C@H](NC(=O)CCCCCCCCCCCCCCCCCCC(=O)O)C(=O)O)C(=O)O)C(=O)N[C@@H](CC(N)=O)C(=O)N[C@@H]([C@@H](C)O)C(=O)N[C@@H](C)C(=O)N[C@@H]([C@@H](C)O)C(=O)N1)[C@@H](C)O)C(=O)N1CCC[C@H]1C(=O)N[C@@H](CO)C(=O)N[C@@H](CO)C(=O)N[C@H](C(=O)N[C@@H](CC(N)=O)C(=O)N[C@H](C(=O)NCC(=O)N[C@@H](Cc1c[nH]cn1)C(=O)N[C@@H](CCC(=O)O)C(=O)N[C@H](C(=O)N[C@@H](Cc1ccc(O)cc1)C(N)=O)[C@@H](C)O)C(C)C)[C@@H](C)O, synthetic peptide amide)", "hCTR funct. EC50 (pM)": 7050}
    ]}
  ]
}
